The record followed here is patent US11999794B2, “Human mesothelin chimeric antigen receptors and uses thereof” (Novartis AG, priority 2013, dated 2024).

Entries after “also recorded” stand apart in the source; their conditions may differ.

The target of assay [1] is T1, biotinylated mesothelin ECD (Homo sapiens, UniProt Q13421).
T1 construct: made in house; host or cells: HEK293F (transient)
Kind of assay: Surface plasmon resonance (Biacore T200) binding affinity of purified scFvs. To be noted: for Kd: 1:1 Binding or Steady State Affinity fit. Here is the method:
Binding affinity of purified scFvs was measured on a Biacore T200 system. Briefly, recombinant human biotinylated mesothelin ECD was immobilized on a streptavidin (SA) sensor chip surface at a density of 150 RU. Purified scFv was injected over the chip under constant flow rate at three-fold serial dilutions. Association and dissociation rates of the protein complex were monitored for 270 seconds and 400 seconds, respectively. Double referencing was performed against a blank immobilized flow cell and a buffer blank. Affinity was determined with a Langmuir 1:1 binding model when possible, for those scFVs where accurate fitting was not possible due to fast on and off rates, the steady state model was used.
On the technique in general: In SPR one partner is held on a chip, and binding of the other changes the refractive index at the surface.

In assay [2] the target is T1, biotinylated mesothelin ECD. As to the kind of experiment: SPR relative epitope binning in comparison to SS1. It counts as binding. The settings on record: 50 nM SS1 captured first, then scFv at 100 nM. How it is done: In embodiments, the competition assay is an SPR-based assay. Briefly, the antigen, e.g., human mesothelin, is immobilized on a surface. Through a microflow system, a reference antibody is injected over the antigen layer. Upon binding of the reference antibody to the antigen, an increase in signal, typically expressed in response units (RU) is detected, e.g., reference signal. After a desired time, a test antibody is injected over the antigen layer. If the test antibody binds to a different region or epitope of the antigen, then an additional increase in signal is detected, e.g., a 5% or more, 10% or more, 15% or more, 20% or more, 25% or more, 30% or more, 35%, or more, 40% or more, 45% or more, 50% or more, 55% of more, 60% or more, 65% or more, 70% or more, 75% or more, 80% or more, 85% or more, 90% or more, or 95% or more increase in signal, e.g., RU, as compared to the highest signal detected upon binding of the reference antibody, e.g., the reference signal. If the test antibody binds to the same region or epitope of the antigen, then little or no increase in signal, e.g., RU, will be detected, e.g., less than 20%, less than 15%, less than 10%, less than 5%, less than 4%, less than 3%, less than 2%, or less than 1% increase in signal, e.g., RU, as compared to the highest signal detected upon binding of the reference antibody, e.g., the reference signal. When using this SPR-based competition assay, an antibody is said to compete with the reference antibody when less than 20%, less than 15%, less than 10%, less than 5%, less than 4%, less than 3%, less than 2%, or less than 1% increase in signal, e.g., RU, is detected when compared to the reference signal detected upon binding of the reference antibody to the antigen. An antibody is said to not compete, or compete poorly, with a reference antibody when a 5% or more, 10% or more, 15% or more, 20% or more, 25% or more, 30% or more, 35%, or more, 40% or more, 45% or more, 50% or more, 55% of more, 60% or more, 65% or more, 70% or more, 75% or more, 80% or more, 85% or more, 90% or more, or 95% or more increase in signal, e.g., RU, is detected when compared to the reference signal detected upon binding of the reference antibody to the antigen.
To determine the relative binding epitope of each of the scFvs in comparison to SS1, 50 nM SS1 was captured by biotinylated mesothelin ECD immobilized on a streptavidin sensor chip at a contact time of 180 seconds resulting in a relative density of 70 RU. Purified scFv at 100 nM (M5, M11, M12, M14, M16, M17, M21, or M23) was then immediately injected over the chip to minimize dissociation of the SS1/mesothelin complex. Binding of the secondary scFv was monitored for 270 seconds.

Assay [3] deals with Ovcar8, SW1990 and Panc0203. As to the kind of experiment: IFNγ production of CART-MSLN (CBA-Flex), endogenous MSLN. It counts as cell-based, human. The settings on record: for IFNγ levels compared with the other CARTs: cancer cells endogenously expressing MSLN. Here is the method: Plots from 20 hour flow-based killing assays using titrating Effector to Target (E:T) ratios with effector CART-MSLN cells targeting CSFE labeled K562 (FIG. 3A. non-expressing MSLN controls) and K562-Meso (FIG. 3B, K562 cells transduced to express MSLN). […] For measuring cytokine production of human scFv bearing CART-MSLN, cells were thawed and allowed to recover overnight. In addition to the humanized CART-MSLN, the SS1 CART-MSLN (murine scFv) was used for comparative purposes. CD19-BBz CART was used as a non-targeting control for background CART cell effect. SS1 CART-MSLN was used in all assays to compare assay variation. The T cells were directed towards K562, a chronic myelogenous leukemia cell line (both MSLN+ and MSLN), the MLSN-expressing ovarian cancer cell line Ovcar8, and the pancreatic cancer lines SW1990 and Panc0203. When analyzing MSLN expression by flow cytometry, we detected 10-fold lower expression of MSLN on Ovcar8 compared to MSLN+K562 cells; SW1990 expressed 10-fold less than Ovcar8. […] In addition, PMA/Ionomycin was used to evaluate the potential of T cells to respond to the endogenous immunological signals. The assay tests only an effector:target ratio of 1:1. The assay is run for 24 hours after mixing of the cells, when the media is removed for cytokine analysis using the IFN-γ CBA-Flex kit for human cytokine detection.
Background levels of cytokine produced from CART-MSLN cells after exposure to the control K562 cells not expressing MSLN were analyzed. […] Differences were dealt with by normalizing the specific IFNγ release over the maximum release (PMA/Ionomycin).

Assay [4] concerns Ovcar8. Kind of assay: Ovcar8 xenograft model (Example 8). It counts as in vivo, NSG mice. To be noted: 2×10^6 CART cells i.v. at day 14. Here is the method:
Anti-tumor activity of CART-MSLN was assessed in vivo in an Ovcar8 xenograft model. 10×10^6 Ovcar8 cells were implanted subcutaneously on day 0 in NSG mice. At day 14, 2×10^6 CART cells (CARTs expressing M5, M11, M17, M21, SS1, and CD19, or untransduced cells; 10×10^6 total T cells) in a 100 μl dose was administered intravenously. Mice and tumors were monitored for about 40 days after tumor cell implantation.
A second in vivo xenograft experiment was performed to assess the anti-tumor activity of a second set of CART-MSLN cells. 10×10^6 OVCAR8-mcherry cells were injected into NSG mice. Once tumors were 150-250 mm^2, mice were randomized into treatment groups. CARTs expressing M12, M14, M16, M23, ss1, CD19, or untreated cells were injected at a dose of 10×10^6 T cells in 100 μl. About 40% of T cells were expressing CAR, and therefore at the administered dosage, about 4×10^6 CART cells were delivered to each animal.

T1 sequence (Q13421 with tags, fused parts or gaps): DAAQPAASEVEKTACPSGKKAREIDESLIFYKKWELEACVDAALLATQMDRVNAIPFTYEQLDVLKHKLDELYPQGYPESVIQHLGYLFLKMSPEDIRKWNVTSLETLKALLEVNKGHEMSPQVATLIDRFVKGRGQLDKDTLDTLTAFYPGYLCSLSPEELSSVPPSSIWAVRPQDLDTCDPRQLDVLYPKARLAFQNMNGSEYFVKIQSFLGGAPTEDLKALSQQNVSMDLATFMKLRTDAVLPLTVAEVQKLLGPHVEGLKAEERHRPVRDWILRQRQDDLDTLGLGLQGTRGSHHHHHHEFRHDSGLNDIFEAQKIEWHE

B1: M5: human anti-mesothelin scFv SEQ ID NO: 43; full CAR SEQ ID NO: 67 (protein)
scFv: QVQLVQSGAEVEKPGASVKVSCKASGYTFTDYYMHWVRQAPGQGLEWMGWINPNSGGTNYAQKFQGRVTMTRDTSISTAYMELSRLRSDDTAVYYCASGWDFDYWGQGTLVTVSSGGGGSGGGGSGGGGSGGGGSDIVMTQSPSSLSASVGDRVTITCRASQSIRYYLSWYQQKPGKAPKLLIYTASILQNGVPSRFSGSGSGTDFTLTISSLQPEDFATYYCLQTYTTPDFGPGTKVEIK
In the case of B1, in assay [1] (1:1 Binding fit), the ka stood at 42000 M⁻¹ s⁻¹ and the kd was found to be 0.00113 s⁻¹. In assay [1], this molecule had a Kd of 26.9 nM. For the same molecule, the “relative epitope binning against SS1 on human mesothelin” value in assay [2] is reported as “bind to a different epitope than SS1; also recorded: bind to a unique epitope”. For the same molecule, the “IFNγ response to cancer cells endogenously expressing MSLN” value in assay [3] (E:T 1:1, 24 hours) is given as “responded”. In addition, in assay [3], the “IFNγ levels compared with the other CARTs” value is “superior IFNγ levels”. The “anti-tumor activity, first xenograft experiment” value in assay [4] was “strong anti-tumor activity”.

B2: M11: human anti-mesothelin scFv SEQ ID NO: 49; full CAR SEQ ID NO: 73 (protein)
scFv: QVQLQQSGAEVKKPGASVKVSCKASGYTFTGYYMHWVRQAPGQGLEWMGWINPNSGGTNYAQNFQGRVTMTRDTSISTAYMELRRLRSDDTAVYYCASGWDFDYWGQGTLVTVSSGGGGSGGGGSGGGGSGGGGSDIRMTQSPSSLSASVGDRVTITCRASQSIRYYLSWYQQKPGKAPKLLIYTASILQNGVPSRFSGSGSGTDFTLTISSLQPEDFATYYCLQTYTTPDFGPGTKVEIK
For the molecule B2, binding in assay [1] was put at a Kd of 64.7 nM. For the same molecule, the “relative epitope binning against SS1 on human mesothelin” value in assay [2] is listed as “bind to a different epitope than SS1; also recorded: bind to a unique epitope”. For the same molecule, the “IFNγ levels compared with the other CARTs” value in assay [3] was “superior IFNγ levels”. In assay [4], the “anti-tumor activity, first xenograft experiment” value is recorded as “strong anti-tumor activity”.

One may read the Kd as a measure of binding affinity in units of concentration.
